Experimental data taken from publication PMC6168463, “Arc/Arg3.1 has an activity-regulated interaction with PICK1 that results in altered spatial dynamics” (Scientific Reports, 2018).

T1: Arc-mCherry (mouse), Q9WV31
T1 chain: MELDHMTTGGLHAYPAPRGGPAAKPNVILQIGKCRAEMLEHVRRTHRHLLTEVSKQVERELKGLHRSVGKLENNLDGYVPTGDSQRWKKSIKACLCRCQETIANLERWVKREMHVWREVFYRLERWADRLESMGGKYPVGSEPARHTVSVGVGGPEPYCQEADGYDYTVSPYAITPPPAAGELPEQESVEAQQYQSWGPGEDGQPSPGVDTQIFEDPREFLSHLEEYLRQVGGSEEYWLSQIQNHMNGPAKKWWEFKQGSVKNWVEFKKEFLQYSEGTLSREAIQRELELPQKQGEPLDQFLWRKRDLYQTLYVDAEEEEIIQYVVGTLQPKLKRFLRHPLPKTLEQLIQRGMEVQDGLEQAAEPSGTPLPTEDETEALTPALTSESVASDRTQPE


How the values were obtained:
[1] = biological target: the molecule itself; assay: TIRF number and brightness (N&B) analysis; live SH-SY5Y cells, plasma membrane; brightness normalised to monomeric EGFP or mCherry; alone or co-transfected
[2] = biological target: T1, Arc-mCherry (mouse), Q9WV31; assay: photon counting histogram (PCH) brightness analysis; live SH-SY5Y cells, cytosol; brightness normalised to monomeric EGFP or mCherry; co-transfected with the other construct or with the free fluorescent protein; 20 to 1,500 nM; conditions: remark: other sources report otherwise
His-PICK1 = biological target: T2, His-PICK1 (human, UniProt Q9NRD5 1-415); assay: pull-down; soluble His-PICK1 (1, 5 and 10 µM) with GST-Arc (1 µM) or GST (1 µM) bound to glutathione-agarose, or resin alone; 20 mM HEPES pH 7.5, 100 mM NaCl, 1 mM DTT, 1 h at 4 °C; bound PICK1 from SDS-PAGE and BCA assay; conditions: both partners purified
T2 construct: also called recombinant His-PICK1; source: E. coli BL21-Codon(+) DE3, pQE-80L, purified (HisTrap; SEC when needed)

[3] = biological target: T1, Arc-mCherry (mouse), Q9WV31; assay: TIRF number and brightness (N&B) analysis; live SH-SY5Y cells, plasma membrane; brightness normalised to monomeric EGFP or mCherry; alone or co-transfected; conditions: remark: other sources report otherwise

Row | normalized brightness (Norm. ε) [2] | binding result (His-PICK1) | stoichiometry N [3] | Binder | stoichiometry N [1]
1 | – | – | – | EGFP-PICK1 (natural protein, human, UniProt Q9NRD5 1-415, looked up, PICK1, 'a human variant of PICK1' ligated to EGFP at the N terminus; source: SH-SY5Y cells, transfected, in live cells; not shown: EGFP, N-terminal, kept) MFADLDYDIEEDKLGIPTVPGKVTLQKDAQNLIGISIGGGAQYCPCLYIVQVFDNTPAALDGTVAAGDEITGVNGRSIKGKTKVEVAKMIQEVKGEVTIHYNKLQADPKQGMSLDIVLKKVKHRLVENMSSGTADALGLSRAILCNDGLVKRLEELERTAELYKGMTEHTKNLLRAFYELSQTHRAFGDVFSVIGVREPQPAASEAFVKFADAHRSIEKFGIRLLKTIKPMLTDLNTYLNKAIPDTRLTIKKYLDVKFEYLSYCLKVKEMDDEEYSCIALGEPLYRVSTGNYEYRLILRCRQEARARFSQMRKDVLEKMELLDQKHVQDIVFQLQRLVSTMSKYYNDCYAVLRDADVFPIEVDLAHTTLAYGLNQEEFTDGEEEEEEEDTAAGEPSRDTRGAAGPLDKGGSWCDS | 2
2 | 1.37 | binds | 2 | GST-Arc (natural protein, mouse, UniProt Q9WV31 1-396, looked up, Arc (activity-regulated cytoskeleton-associated protein, Arg3.1), mouse cDNA; also called Arg3.1; Activity-regulated cytoskeleton-associated protein; source: pGST.parallel 1 vector, purified (glutathione agarose resin, eluted with 50 mM glutathione; SEC when needed)) MELDHMTTGGLHAYPAPRGGPAAKPNVILQIGKCRAEMLEHVRRTHRHLLTEVSKQVERELKGLHRSVGKLENNLDGYVPTGDSQRWKKSIKACLCRCQETIANLERWVKREMHVWREVFYRLERWADRLESMGGKYPVGSEPARHTVSVGVGGPEPYCQEADGYDYTVSPYAITPPPAAGELPEQESVEAQQYQSWGPGEDGQPSPGVDTQIFEDPREFLSHLEEYLRQVGGSEEYWLSQIQNHMNGPAKKWWEFKQGSVKNWVEFKKEFLQYSEGTLSREAIQRELELPQKQGEPLDQFLWRKRDLYQTLYVDAEEEEIIQYVVGTLQPKLKRFLRHPLPKTLEQLIQRGMEVQDGLEQAAEPSGTPLPTEDETEALTPALTSESVASDRTQPE | –
